Measured values from the Immune Epitope Database (IEDB).

What follows are sequences tested against HLA-A*02:01 (assay: IEDB peptide-MHC binding, purified MHC/competitive/radioactivity; ≥ and ≤ were set here for values at or beyond the usual limits of such assays). Conditions: source organism: Human alphaherpesvirus 1.

Q: For ALAPVFAFL, which IC50 is on record?
A: 2.2 nM

Q: With LVWYTVFGA as the sequence, how does the IC50 read?
A: 346 nM

Q: How did the IC50 turn out when YLSEEMMEL was run?
A: 6.3 nM

Q: For FTQKSLFPI, which IC50 is on record?
A: 84 nM

Q: Which IC50 does the source give for VLMDGHTGM here?
A: 136 nM

Q: MQFVDRFVV was tested. Which IC50 did it give?
A: 209 nM

Q: With TLRDTIPDC as the sequence, how does the IC50 read?
A: 1390 nM

Q: How did the IC50 turn out when ELFGEAFEV was run?
A: 90 nM

Q: How did the IC50 turn out when FLGGHVAVA was run?
A: 65 nM

Q: With VILPACAFV as the sequence, how does the IC50 read?
A: 6.2 nM

Q: With LLANTVRYL as the sequence, how does the IC50 read?
A: 75 nM

Q: GLVSFNFLV was tested. Which IC50 did it give?
A: 0.5 nM

Q: LLLMGCDIV was tested. Which IC50 did it give?
A: 94 nM

Q: Which IC50 does the source give for HLMRDPALL here?
A: 37 nM

Q: For FVFVILARL, which IC50 is on record?
A: 720 nM

Q: Which IC50 does the source give for QLLADFPEA here?
A: 133 nM

Q: How did the IC50 turn out when GILTVVWTA was run?
A: 2.1 nM

Q: RLDAEYWSV was tested. Which IC50 did it give?
A: 44 nM

Q: How did the IC50 turn out when VTFDTLFMV was run?
A: 8.7 nM

Q: With RLVDGVGGI as the sequence, how does the IC50 read?
A: 217 nM

Q: Which IC50 does the source give for SLLDSLLVM here?
A: 76 nM

Q: Which IC50 does the source give for GLNGDSFRV here?
A: 22 nM

Q: MLIKGVDLV was tested. Which IC50 did it give?
A: 16 nM

Q: For YLCPVLVFV, which IC50 is on record?
A: 9.5 nM

Q: For GMRGLVLAT, which IC50 is on record?
A: 3660 nM

Q: Which IC50 does the source give for AMHARMAAV here?
A: 19 nM

Q: How did the IC50 turn out when SLLALNEAL was run?
A: 54 nM

Q: For LLNNYDVLV, which IC50 is on record?
A: 10 nM

Q: For FLTPLSVTL, which IC50 is on record?
A: 4.7 nM

Q: LLAVAVYAV was tested. Which IC50 did it give?
A: 5.8 nM

Q: For AVHDPERPL, which IC50 is on record?
A: 3940 nM

Q: Which IC50 does the source give for CLSDLLGFL here?
A: 88 nM

Q: For DMTPAELEV, which IC50 is on record?
A: 669 nM

Q: How did the IC50 turn out when VLLEKAPPL was run?
A: 24 nM

Q: Which IC50 does the source give for LLYDLSTTA here?
A: 43 nM

Q: Which IC50 does the source give for FLAPELVRA here?
A: 12 nM

Q: Which IC50 does the source give for FIAPLGFSL here?
A: 6.5 nM

Q: With TLSGMGYYL as the sequence, how does the IC50 read?
A: 148 nM

Q: For ILSPTAPSV, which IC50 is on record?
A: 6.1 nM

Q: Which IC50 does the source give for FLADAVVRL here?
A: 52 nM

Q: With LLMGCDIVL as the sequence, how does the IC50 read?
A: 2.3 nM

Q: ALSALLTKL was tested. Which IC50 did it give?
A: 313 nM

Q: For ALVELNSGV, which IC50 is on record?
A: 9.3 nM

Q: Which IC50 does the source give for AIVVVIILV here?
A: 6910 nM

Q: GLISFYNFL was tested. Which IC50 did it give?
A: 1.5 nM

Q: MLDTWNEDL was tested. Which IC50 did it give?
A: 102 nM

Q: For VLFSGPSPL, which IC50 is on record?
A: 7.9 nM

Q: For GLWVCATSL, which IC50 is on record?
A: 36 nM

Q: ALLDRDCRV was tested. Which IC50 did it give?
A: 5.6 nM

Q: YMAKLHAYL was tested. Which IC50 did it give?
A: 11 nM

Q: With QLFEAHPNV as the sequence, how does the IC50 read?
A: 256 nM

Q: For RLDALVVAA, which IC50 is on record?
A: 44 nM

Q: How did the IC50 turn out when LLSNTLAEL was run?
A: 5.1 nM

Q: Which IC50 does the source give for RLYRWQPDL here?
A: 916 nM

Q: FLWSFLVLK was tested. Which IC50 did it give?
A: 1420 nM

Q: With RLTGVTSLV as the sequence, how does the IC50 read?
A: 13 nM

Q: For ALSPALTAL, which IC50 is on record?
A: 194 nM

Q: With FLHLYLFLT as the sequence, how does the IC50 read?
A: 564 nM

Q: LLVEVLREI was tested. Which IC50 did it give?
A: 1.6 nM

Q: Which IC50 does the source give for LITNYLPSV here?
A: 5.2 nM

Q: With TLLELVVSV as the sequence, how does the IC50 read?
A: 1.8 nM

Q: For RLQEALAVV, which IC50 is on record?
A: 6.6 nM

Q: LLIDTGVYA was tested. Which IC50 did it give?
A: 94 nM

Q: FLASLVVLA was tested. Which IC50 did it give?
A: 1.7 nM

Q: How did the IC50 turn out when YLARAAGLV was run?
A: 210 nM

Q: Which IC50 does the source give for LLDFELACL here?
A: 63 nM

Q: KTWFLVPLI was tested. Which IC50 did it give?
A: 1.7 nM

Q: How did the IC50 turn out when ALHQCFTEL was run?
A: 831 nM

Q: Which IC50 does the source give for EMIRYMALV here?
A: 179 nM

Q: With LMPSPPMPV as the sequence, how does the IC50 read?
A: 124 nM

Q: With KMAQCTLAV as the sequence, how does the IC50 read?
A: 14 nM

Q: Which IC50 does the source give for VLTEPLCQV here?
A: 71 nM

Q: With FLTREILWA as the sequence, how does the IC50 read?
A: 4.2 nM

Q: How did the IC50 turn out when MLWTTDKHV was run?
A: 1290 nM

Q: How did the IC50 turn out when MLYVIFPGT was run?
A: 317 nM

Q: With FIYLALLEA as the sequence, how does the IC50 read?
A: 11 nM

Q: With RLIDRMLTA as the sequence, how does the IC50 read?
A: 8.6 nM

Q: How did the IC50 turn out when FLLAKLTDI was run?
A: 10 nM

Q: Which IC50 does the source give for YLALLEACL here?
A: 7.5 nM

Q: RLAEAVVSA was tested. Which IC50 did it give?
A: 75 nM

Q: ALMLRLLRI was tested. Which IC50 did it give?
A: 46 nM

Q: For FLALVSNRV, which IC50 is on record?
A: 7.4 nM

Q: Which IC50 does the source give for SEEEGNFYV here?
A: 19200 nM

Q: VLVVQPAPV was tested. Which IC50 did it give?
A: 112 nM

Q: For YLLEQLNNL, which IC50 is on record?
A: 5.7 nM

Q: Which IC50 does the source give for ELACLLMYL here?
A: 54 nM

Q: Which IC50 does the source give for SLQQELAHM here?
A: 71 nM

Q: For RLQTYLTDI, which IC50 is on record?
A: 827 nM

Q: FADTVVACV was tested. Which IC50 did it give?
A: 59 nM

Q: FLMAPDLYV was tested. Which IC50 did it give?
A: 6.4 nM

Q: For LLLNTTLTV, which IC50 is on record?
A: 2.9 nM

Q: RLVVVGWFL was tested. Which IC50 did it give?
A: 865 nM

Q: FLNQANCKI was tested. Which IC50 did it give?
A: 458 nM

Q: With ALATALTEA as the sequence, how does the IC50 read?
A: 10 nM

Q: FMVSSIDEL was tested. Which IC50 did it give?
A: 1.1 nM

Q: YLATGALLA was tested. Which IC50 did it give?
A: 55 nM

Q: SLFDCIVPV was tested. Which IC50 did it give?
A: 0.17 nM

Q: ALVACVAAL was tested. Which IC50 did it give?
A: 55 nM

Q: EMADTFLDT was tested. Which IC50 did it give?
A: 1770 nM

Q: For RLMNDWAEV, which IC50 is on record?
A: 24 nM

Q: How did the IC50 turn out when LMDGHTGMV was run?
A: 184 nM

Q: For FIPQYLSAV, which IC50 is on record?
A: 15 nM

Q: For FAFRYVNRL, which IC50 is on record?
A: 122 nM

Q: For RIQQYMFFM, which IC50 is on record?
A: 81 nM

Q: Which IC50 does the source give for ALMRGRPGL here?
A: 1680 nM

Q: ALLPAPITL was tested. Which IC50 did it give?
A: 132 nM

Q: With LMFDPRALA as the sequence, how does the IC50 read?
A: 762 nM

Q: How did the IC50 turn out when RLNNRPIAV was run?
A: 20 nM

Q: How did the IC50 turn out when FMAAKAAHL was run?
A: 276 nM

Q: With RMLGDVMAV as the sequence, how does the IC50 read?
A: 1.7 nM

Q: How did the IC50 turn out when RTAWWVWCV was run?
A: 26 nM

Q: How did the IC50 turn out when VTTDSVRAL was run?
A: 5350 nM

Q: With TMRDDLPLV as the sequence, how does the IC50 read?
A: 61 nM

Q: Which IC50 does the source give for GMVIACLLV here?
A: 252 nM

Q: FILDALAQA was tested. Which IC50 did it give?
A: 2.6 nM

Q: How did the IC50 turn out when ALGLSAFGV was run?
A: 9.6 nM

Q: With LLAQFQHTV as the sequence, how does the IC50 read?
A: 1.2 nM

Q: Which IC50 does the source give for MILALTVAI here?
A: 45 nM

Q: For LLDDLGFSA, which IC50 is on record?
A: 46 nM

Q: IIWGELFGV was tested. Which IC50 did it give?
A: 2.3 nM

Q: With VMAARPMVV as the sequence, how does the IC50 read?
A: 266 nM

Q: Which IC50 does the source give for YLANGGFLI here?
A: 0.56 nM

Q: With KLAVYYYII as the sequence, how does the IC50 read?
A: 31 nM

Q: For LLQRANELV, which IC50 is on record?
A: 635 nM

Q: FLQPTADLL was tested. Which IC50 did it give?
A: 26 nM

Q: With VLADDVYPL as the sequence, how does the IC50 read?
A: 2.4 nM

Q: With FLHDVENFL as the sequence, how does the IC50 read?
A: 12 nM

Q: AVGELLAPV was tested. Which IC50 did it give?
A: 84 nM

Q: For RMGELTAEI, which IC50 is on record?
A: 91 nM

Q: How did the IC50 turn out when FVGVIILGV was run?
A: 5.9 nM

Q: How did the IC50 turn out when SLMNVDAAV was run?
A: 9.7 nM

Q: For FVAPYFESV, which IC50 is on record?
A: 8.7 nM

Q: With FVPYVLALV as the sequence, how does the IC50 read?
A: 0.9 nM

Q: For FLSRPINTI, which IC50 is on record?
A: 528 nM
